Measurements from paper PMC6910826.

Target: 6xHis-Zasp52-PK-FLAG (Drosophila melanogaster)
Assay: cross-linking; purified 6xHis-Zasp52-PK-FLAG incubated with EGS or alone; SDS-PAGE and anti-Flag western blot

Chain of 6xHis-Zasp52-PK-FLAG (A1ZA47 whole entry): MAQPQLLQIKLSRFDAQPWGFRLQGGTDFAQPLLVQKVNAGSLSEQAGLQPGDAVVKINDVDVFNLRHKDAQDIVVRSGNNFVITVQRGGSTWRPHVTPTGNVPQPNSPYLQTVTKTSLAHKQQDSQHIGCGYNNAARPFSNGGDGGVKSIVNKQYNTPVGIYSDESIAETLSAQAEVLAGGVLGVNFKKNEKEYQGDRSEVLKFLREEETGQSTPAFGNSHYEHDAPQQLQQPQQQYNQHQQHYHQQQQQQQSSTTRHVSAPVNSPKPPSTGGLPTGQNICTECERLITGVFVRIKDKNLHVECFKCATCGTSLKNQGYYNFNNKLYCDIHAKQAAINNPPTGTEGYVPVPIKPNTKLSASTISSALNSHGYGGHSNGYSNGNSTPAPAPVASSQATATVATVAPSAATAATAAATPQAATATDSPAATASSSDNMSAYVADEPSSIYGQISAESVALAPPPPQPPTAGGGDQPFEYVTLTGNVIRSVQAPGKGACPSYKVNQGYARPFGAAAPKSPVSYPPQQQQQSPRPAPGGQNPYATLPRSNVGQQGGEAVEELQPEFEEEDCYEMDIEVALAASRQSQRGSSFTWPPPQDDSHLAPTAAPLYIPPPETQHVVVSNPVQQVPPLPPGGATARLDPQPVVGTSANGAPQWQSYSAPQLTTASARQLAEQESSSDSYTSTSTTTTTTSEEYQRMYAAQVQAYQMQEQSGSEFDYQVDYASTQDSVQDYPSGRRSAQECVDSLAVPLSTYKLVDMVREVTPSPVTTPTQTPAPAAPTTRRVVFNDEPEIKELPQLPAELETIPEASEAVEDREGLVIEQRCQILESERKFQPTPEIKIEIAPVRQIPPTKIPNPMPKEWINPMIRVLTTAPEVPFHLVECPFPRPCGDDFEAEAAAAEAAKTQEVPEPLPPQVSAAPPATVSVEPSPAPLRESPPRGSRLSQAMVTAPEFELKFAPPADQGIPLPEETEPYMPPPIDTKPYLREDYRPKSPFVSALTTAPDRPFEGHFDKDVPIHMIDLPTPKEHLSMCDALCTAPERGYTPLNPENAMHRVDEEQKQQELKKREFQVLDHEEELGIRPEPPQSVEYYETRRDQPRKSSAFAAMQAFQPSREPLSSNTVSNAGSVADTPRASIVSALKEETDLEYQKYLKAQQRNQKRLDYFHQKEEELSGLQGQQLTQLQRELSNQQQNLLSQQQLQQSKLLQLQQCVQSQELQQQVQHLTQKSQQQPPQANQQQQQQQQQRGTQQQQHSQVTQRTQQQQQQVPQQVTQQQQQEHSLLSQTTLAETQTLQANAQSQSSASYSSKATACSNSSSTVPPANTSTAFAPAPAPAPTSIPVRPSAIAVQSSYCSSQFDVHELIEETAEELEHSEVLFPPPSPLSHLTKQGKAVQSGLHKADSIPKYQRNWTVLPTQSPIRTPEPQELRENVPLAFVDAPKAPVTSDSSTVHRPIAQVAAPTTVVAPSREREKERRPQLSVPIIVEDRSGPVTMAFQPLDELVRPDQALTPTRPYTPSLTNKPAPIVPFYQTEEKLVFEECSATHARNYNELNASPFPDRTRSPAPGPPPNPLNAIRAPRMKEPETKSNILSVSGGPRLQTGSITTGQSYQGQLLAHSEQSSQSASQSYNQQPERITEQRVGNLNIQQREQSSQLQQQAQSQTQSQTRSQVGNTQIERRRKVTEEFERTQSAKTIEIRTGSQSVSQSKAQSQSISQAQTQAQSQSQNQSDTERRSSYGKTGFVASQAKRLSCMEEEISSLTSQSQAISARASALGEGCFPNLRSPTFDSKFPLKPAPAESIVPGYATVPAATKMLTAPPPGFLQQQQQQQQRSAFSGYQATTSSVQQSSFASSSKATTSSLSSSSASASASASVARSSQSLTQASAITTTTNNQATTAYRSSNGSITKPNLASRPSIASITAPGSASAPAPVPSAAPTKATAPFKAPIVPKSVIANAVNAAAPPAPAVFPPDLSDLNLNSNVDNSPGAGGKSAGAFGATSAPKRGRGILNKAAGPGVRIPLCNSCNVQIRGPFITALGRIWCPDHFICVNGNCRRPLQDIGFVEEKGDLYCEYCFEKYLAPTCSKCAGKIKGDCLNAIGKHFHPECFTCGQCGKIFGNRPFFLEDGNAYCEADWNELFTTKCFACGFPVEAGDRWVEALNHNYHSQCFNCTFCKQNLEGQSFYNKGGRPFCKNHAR

## 6xHis-Zasp52-PK-FLAG (natural protein)
  stoichiometry N: 2
